Results from patent US20230235304.
Residue numbers refer to the chain shown, from its start.

Legend:
[1] = tested on: T1, CRISPR nuclease variant L580G,L385G L580G,L385G (synthetic construct); assay: cell_activity; conditions: PAM 5'-GCTG-3'; HEK293T; averaged over AAVS1, VEGFA, EMX1 targets
T1 sequence: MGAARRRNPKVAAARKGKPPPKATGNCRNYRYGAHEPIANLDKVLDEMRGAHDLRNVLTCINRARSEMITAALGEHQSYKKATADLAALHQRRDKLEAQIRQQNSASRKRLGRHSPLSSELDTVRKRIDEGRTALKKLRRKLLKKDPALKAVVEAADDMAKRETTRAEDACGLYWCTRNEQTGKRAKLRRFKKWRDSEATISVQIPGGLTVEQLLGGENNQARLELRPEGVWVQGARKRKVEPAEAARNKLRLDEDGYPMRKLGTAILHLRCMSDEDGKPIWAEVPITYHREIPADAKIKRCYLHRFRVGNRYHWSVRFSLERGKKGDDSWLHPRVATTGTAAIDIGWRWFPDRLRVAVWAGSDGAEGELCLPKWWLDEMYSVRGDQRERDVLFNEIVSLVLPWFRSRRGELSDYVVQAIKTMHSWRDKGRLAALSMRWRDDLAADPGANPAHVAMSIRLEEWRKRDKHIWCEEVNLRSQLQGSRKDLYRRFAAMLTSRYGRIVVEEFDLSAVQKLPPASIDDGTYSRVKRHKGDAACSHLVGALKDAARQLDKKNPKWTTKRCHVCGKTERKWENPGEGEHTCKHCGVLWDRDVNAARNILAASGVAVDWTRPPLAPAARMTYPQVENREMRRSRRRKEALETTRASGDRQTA

[2] = tested on: T2, CRISPR nuclease variant S78K,E198R,R354G S78K,E198R,R354G (synthetic construct); assay: cell_activity; conditions: PAM 5'-GCTG-3'; HEK293T; averaged over AAVS1, VEGFA, EMX1 targets
T2 sequence: T1 sequence with S78K, E198R, R354G, G385L, G580L

Sequence: GGUCCCAUCGGAACGGGUUGUGGUUCCGACGGAGGGAUACAUUGGUGGGG / GGAGGGATACATTGGTGGGG / CCCCACCAATGTATCCCTCC [AAVS1 crRNA (Table 5) ; AAVS1 target (Table 5)]
- binding signal (fold indels vs WT) [1]: 3.9
- binding signal (fold indels vs WT) [2]: 4.14
